The assay addresses HLA-DR on K562-CD19-HLA-DR cells (alpha chain UniProtKB-P01903, beta chain UniProtKB-P04229) (human) (UniProt P01903). The assay is described as follows: cell-based or functional assay.

Substance “anti-HLA-DR iCAR (FLAG tag, scFv of antibody 1D09C3, PD-1 hinge, transmembrane and intracellular domains) (from UniProt Q15116 145-288) (receptor)” had a CD107a+ population, single against dual CAR-NK cells, K562-CD19-HLA-DR target cells of 2 to 3 fold and an IFN-γ production (ELISA), dual against single CAR-NK cells with K562-CD19-HLA-DR cells of 70 % reduction.

For the origin of these results see patent publication US20260115290A1.
